Results reported in US12371675B2, “Process and microorganism for synthesis of adipic acid from carboxylic acids” (THE GOVERNING COUNCIL OF THE UNIVERSITY OF TORONTO, priority 2015, dated 2025).

B1: Clostridium acetobutylicum DSM 1731 2-enoate reductase EREDCA, SEQ ID NO: 2 (Clostridium acetobutylicum ATCC 824) (protein)
chain: MNKYKKLFEPIKIGKCEIKNRFALAPMGPLGLADSEGGFNQRGIDYYTERAKGGTGLIITGVTFVDNEVEEHGMPNCPCPTHNPVQFVRTGREMTERIHAYNSKVFLQMSGGFGRVTIPTNLGEFPPVAPSPIQHRWLDKTCRELTVDEIKSIVKKFGEGAFNAKRAGFDGVQIHAVHEGYLIDQFAISLFNHRTDEYGGSLENRLRFAREIVEEIKNRCGEDFPVTLRYSPKSFIKDLRDGALPGEEFVEKGRDLDEGVEAAKLLVSYGYDALDTDVGSYDSWWWSHPPMYQEKGLYRKYAKLMKDTVDVPVICAGRMDDPDMALEAVENGTCDVISLGRPLLADPDYVNKLRSNKCKSIRPCISCQEGCMGRVQHYSMLNCAVNPQACKERANSLTPIIKSKKVLIVGGGVAGCEAARVLALRGHEPVLYEKSNRLGGNLIPGGAPSFKEDDIALADWYTNTLKELNVEVNLNSEVTKEQILNSKFDTVIVATGSTPKVFPLGDDEKVFTAAEVLLGQKDPGETTVVVGGGLVGCELALDLAKKGKKVTIVEALNKILALNGPLCSANSEMLQKLIPFNGIDVKANSKVKGYKNGLLKMETENGIEELPCDSVILSVGYKEENSLYKELEFEIPEIYLLGDARKVSNIMYGIWDAFEVANHI
B2: Bacillus coagulans 36D1 2-enoate reductase EREDBC, SEQ ID NO: 1 (Heyndrickxia coagulans) (protein)
chain: MKYKKLFETVKIRNVELKNRYAMAPMGPLGLADAEGGFNQRGIEYYTARARGGTALIITGVTFVDNEVEEHGMPNVPCPTHNPVHFVRTSKEMTERIHAYDSKIFLQMSAGFGRVTIPTNLGEYPPVAPSPIPHRWLDKTCRELTVEEIHSIVRKFGDGAFNAKRAGFDGVQIHAVHEGYLLDQFAIAFFNKRTDAYGGPLENRLRFAREIVEEIKQRCGEDFPVTLRFSPKSFIKDWREGALPGEEFEEKGRDLDEGIEAAKLLVSYGYDALDVDVGSYDSWWWSHPPMYQKKGLYIPYARLVKEAVDVPVLCAGRMDNPDLALAALEDGACDIISLGRPLLADPDYVNKLRIGQVADIRPCLSCHEGCMGRIQEYSSLGCAVNPAACREKEAALTPALKKKRVLIAGGGVAGCEAARVLALRGHEPVIFEKSNRLGGNLIPGGAPDFKEDDLALVAWYEHTLERLGVEIHLNTALTKEEILAANVDAVLIATGSNPKILPLDGKNKVFTAEDVLLDKVDAGQHVVIVGGGLVGCELALNLAEKGKDVSLVEMQDKLLAVNGPLCHANSDMLERLVPFKGVQVYTSSKIVDTTEKTAVVDVDGELREIEADSIVLAVGYSAEKSLYEDLKFEVADLHVVGDARKVANIMYAIWDAYEVAANL

Key:
[1] = substrate: O=C(O)/C=C/c1ccccc1; test: Kinetics of purified EREDCA, NADH oxidation at 340 nm, anaerobic; assay type: biochemical, Clostridium acetobutylicum DSM 1731; conditions: other: trans-cinnamic acid, pH 7.0, 30° C., anaerobic
Method: (§1) The C═C reducing activity of EREDs was examined. Enzyme activity of purified EREDs was measured spectrophotometrically in 96-well plates by following incubation for 3-5 min at 30° C. in the anaerobic chamber as described in M. Buhler, H. Simon, Hoppe-Seyler's Zeitschrift fur Physiologische Chemie 1982, 363, 609-625. Buffers and reagents were degassed and sparged with Ar. Reaction mixture contained potassium phosphate (100 mM and pH 7.0), NADH (0.5 mM), indicated substrates, and proteins (0.1-50 μg) in a final volume of 200 μL. Enzyme reactions were monitored by following the decrease in absorbance at 340 nm (ε340 nm=6,220/M·cm) due to oxidation of NADH to NAD+.
(§2) For in vitro biochemical characterization, enzyme activities of purified EREDs were measured with 2-hexenedioic acid, cis-cis-muconic acid, trans-trans muconic acid, trans-cinnamic acid, trans-2-methyl-2-butenoic acid, trans-2-butenoic acid, acrolein, 2-cyclohexen-1-one, and 3-methyl-2-cyclohexenone. […] [Feng, J. et al. Discovery and Characterization of BlsE, a Radical S-Adenosyl-L-methionine Decarboxylase Involved in the Blasticidin S Biosynthetic Pathway. PLoS ONE 8 (2013)].
(§3) To increase the dissolved substrate concentration, 2-hexenedioic acid was dissolved in a reaction mixture containing […] (final concentration) isopropanol, and kinetic constants of EREDBC and EREDCA were determined.

[2] = substrate: O=C(O)C=CCCC(=O)O; test: as above; assay type: biochemical, Clostridium acetobutylicum DSM 1731; conditions: other: 2-hexenedioic acid in 0.25 mM isopropanol, 2.5 to 35 mM, sigmoidal kinetics, pH 7.0, 30.0 °C
Method: as §1, §2, §3

[3] = substrate: O=C(O)/C=C/c1ccccc1; test: Kinetics of purified EREDBC, NADH oxidation at 340 nm, anaerobic; assay type: biochemical, Bacillus coagulans 36D1; conditions: other: trans-cinnamic acid, pH 7.0, 30° C., anaerobic
Method: as §1, §2
(§4) Kinetic studies of purified EREDBC were performed using 2-hexenedioic acid, 2-cyclohexen-1-one, 3-methyl-2-cyclohexenone, and trans-cinnamic acid as substrates (FIG. 10).
as §3

[4] = substrate: O=C(O)C=CCCC(=O)O; test: as above; assay type: biochemical, Bacillus coagulans 36D1; conditions: other: 2-hexenedioic acid in 0.25 mM isopropanol, 2.5 to 35 mM, sigmoidal kinetics, pH 7.0, 30.0 °C
Method: as §1, §2, §4, §3

Row | Protein | Km [1] [mM] | kcat [1] [s⁻¹] | Km [2] [mM] | Km [3] [mM] | kcat [3] [s⁻¹] | Km [4] [mM]
1 | B1 | 0.17 | 5.2 | 20.47 |  |  | 
2 | B2 |  |  |  | 0.51 | 0.50 | 18.9
